To fix the notation:
B1: LigI (Sphingobium sp. SYK-6; H178A) (protein)
chain: TNDERILSWNETPSKPRYTPPPGAIDAHCHVFGPMAQFPFSPKAKYLPRDAGPDMLFALRDHLGFARNVIVQASCHGTDNAATLDAIARAQGKARGIAVVDPAIDEAELAALHEGGMRGIRFNFLKRLVDDAPKDKFLEVAGRLPAGWHVVIYFEADILEELRPFMDAIPVPIVIDAMGRPDVRQGPDGADMKAFRRLLDSREDIWFKATCPDRLDPAGPPWDDFARSVAPLVADYADRVIWGTDWPHPNMQDAIPDDGLVVDMIPRIAPTPELQHKMLVTNPMRLYWSEEM
B2: LigI (Sphingobium sp. SYK-6; R128M) (protein)
chain: B1 chain with R127M, A177H
B3: LigI (Sphingobium sp. SYK-6; R122M) (protein)
chain: B1 chain with R121M, A177H
B4: LigI (Sphingobium sp. SYK-6; D246N) (protein)
chain: B1 chain with A177H, D245N
B5: LigI (Sphingobium sp. SYK-6; Y154F) (protein)
chain: B1 chain with Y153F, A177H
B6: LigI (Sphingobium sp. SYK-6; H29N) (protein)
chain: B1 chain with H28N, A177H
B7: LigI (Sphingobium sp. SYK-6; H31N) (protein)
chain: B1 chain with H30N, A177H
B8: LigI (Sphingobium sp. SYK-6; Y47F) (protein)
chain: B1 chain with Y46F, A177H
B9: LigI (Sphingobium sp. SYK-6; H178C) (protein)
chain: B1 chain with A177C

Residue numbers refer to the chain shown, from its start. Names may count otherwise.

Substrate in this series: O=C(O)c1cc(C(=O)O)oc(=O)c1
The series is described as follows: purified protein. Type of series: biochemical, Sphingobium sp. SYK-6. To be noted: 50 mM BICINE pH 8.25, 30 °C.
What is called Km is the concentration of substrate that gives half-maximal velocity. The term kcat denotes the number of substrate molecules converted per active site and unit of time at saturation. By kcat/Km is commonly meant the second-order rate constant that governs catalysis at low substrate concentration. As for B1, the Km was 214 ± 44 µM, the kcat amounted to 8 ± 0.9 s⁻¹ and the specificity constant (kcat/Km) stood at 37000 ± 4000 M⁻¹ s⁻¹.

As to B2, the Km was found to be 465 ± 104 µM, the kcat turned out to be 5 ± 0.4 s⁻¹ and the kcat/Km is 11000 ± 7000 M⁻¹ s⁻¹.

B3: the Km came to 90 ± 15 µM, the kcat was 0.02 ± 0.001 s⁻¹ and the kcat/Km worked out at 200 ± 22 M⁻¹ s⁻¹.

For B4, the Km was 66 ± 13 µM, the kcat stood at 0.023 ± 0.001 s⁻¹ and the catalytic efficiency (kcat/Km) came to 200 ± 34 M⁻¹ s⁻¹.

Consider B5, for which the Km was determined as 238 ± 19 µM, the kcat is 8.7 ± 0.3 s⁻¹ and the kcat/Km came out at 37000 ± 200 M⁻¹ s⁻¹.

With B6, the Michaelis-Menten constant (Km) is 720 ± 122 µM, the kcat was 0.4 ± 0.04 s⁻¹ and the kcat/Km is 500 ± 37 M⁻¹ s⁻¹.

Consider B7, for which the Km is 89 ± 20 µM, the kcat amounted to 3.6 ± 0.3 s⁻¹ and the kcat/Km amounted to 41000 ± 6000 M⁻¹ s⁻¹.

Take B8: the Km was found to be 217 ± 41 µM, the kcat stood at 26 ± 2 s⁻¹ and the kcat/Km amounted to 120000 ± 2000 M⁻¹ s⁻¹.

For the protein B9, the Km came out at 41 ± 7 µM, the kcat was 32 ± 4 s⁻¹ and the kcat/Km is 780000 ± 50000 M⁻¹ s⁻¹.
